{
  "source": "paper PMC11921806",
  "about": "“Structural characterization and inhibition of the interaction between ch-TOG and TACC3” (The Journal of Cell Biology, 2025)",
  "binders": {"B1": {"name": "TACC3 629–838 ∆699–765 (domain or fragment)", "chain": "not shown", "notes": "human TACC3 residues 629-838 with residues 699-765 deleted; A version with a C-terminal biotinylated Avi-tag was used for Affimer panning and ELISA; also called TACC3 TD∆; not shown: His, N-terminal, cleaved; NusA, N-terminal, cleaved"}, "B2": {"name": "TACC3 MTSL-C662 (domain or fragment)", "chain": "not shown", "modifications": "MTSL spin label on C662", "notes": "human TACC3 residues 629-838 with C749A and C828A; also called TACC3 629–838 C749A, C828A; source: E. coli BL21(DE3)RIL, purified, MTSL-labelled, SEC; not shown: His, N-terminal, cleaved; NusA, N-terminal, cleaved"}, "B3": {"name": "synthetic ch-TOG H5 peptide (residues 1929–1947) (peptide)", "peptide": "EVGPSVYLERLKILRQRCG", "notes": "human ch-TOG/CKAP5 helix H5, residues 1929-1947; source: synthetic peptide"}, "B4": {"name": "His-NusA-ch-TOG 1817–1957 (domain or fragment)", "chain": "ASRIDEKSSKAKVNDFLAEIFKKIGSKENTKEGLAELYEYKKKYSDADIEPFLKNSSQFFQSYVERGLRVIEMEREGKGRISTSTGISPQMEVTCVPTPTSTVSSIGNTNGEEVGPSVYLERLKILRQRCGLDNTKQDDRP", "notes": "not shown: His, N-terminal, kept; NusA, N-terminal, kept"}},
  "key": {"ch-TOG 1517–1957": {"target": "T1, ch-TOG 1517–1957 (human, UniProt Q14008 1517-1957)", "T1 construct": "Construct from Hood et al., 2013; also called C-terminal domain of ch-TOG; not shown: His, N-terminal, cleaved; NusA, N-terminal, cleaved", "assay": "pull-down; in vitro co-precipitation; C-terminal His-tagged Affimers immobilised on Nickel Sepharose, incubated with TACC3 629–838 ∆699–765, ch-TOG 1517–1957 added", "conditions": "both partners purified"}, "[1]": {"target": "the molecule itself", "assay": "EPR (CW EPR and DEER); MTSL-labelled TACC3 proteins, 50 μM with 30% glycerol; CW EPR at 120 K, four-pulse DEER at 50 K"}, "TACC3 629–838 [2]": {"target": "T2, TACC3 629–838 (human, UniProt Q9Y6A5 629-838)", "T2 construct": "human TACC3, TACC domain, residues 629-838; For MST the protein was fluorescently labelled via NHS coupling (NHS Red labelling kit, Nanotemper); Construct from Hood et al., 2013; also called TACC3 TACC domain; TACC3 TD; not shown: His, N-terminal, cleaved; NusA, N-terminal, cleaved", "assay": "MST; NHS Red labelled TACC domain at 600 nM, H5 peptide 0–400 μM; 20 mM sodium phosphate, 50 mM NaCl, 2 mM DTT, 0.05% Tween, 0.02% NaN3; one-site specific binding model", "conditions": "both partners purified"}, "TACC3 629–838 [3]": {"target": "T2, TACC3 629–838", "assay": "pull-down; in vitro co-precipitation; His-NusA-ch-TOG 1817–1957 constructs immobilised on Nickel Sepharose, TACC3 629–838 added; binding of TACC3 resolved by western blot", "conditions": "both partners purified"}},
  "data": [
    {"binder": "B1", "values": [
      {"measurement": "binding result", "setting": "ch-TOG 1517–1957", "result": "binds"}
    ]},
    {"binder": "B2", "values": [
      {"measurement": "binding result", "setting": "[1]", "result": "binds"}
    ]},
    {"binder": "B3", "values": [
      {"measurement": "Kd", "setting": "TACC3 629–838 [2]", "result": 17.3, "unit": "µM"}
    ]},
    {"binder": "B4", "values": [
      {"measurement": "binding result", "setting": "TACC3 629–838 [3]", "result": "binds"}
    ]}
  ]
}
